Consider 19 sequences from the supplement of paper PMC9170038.

The test system of data set [1] is MS2 coat protein. As to the kind of experiment: apparent KD of MS2 coat protein, switch OFF state (with FMN for OFF switches, without FMN for ON switches); designed switch direction (-1 OFF switch, 1 ON switch): 1; higher = weaker reporter binding. To be noted: FMN input: 0 or 200 uM; Eterna round: R93 (includes R88 designs). In outline:
(§1)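 Apparent KD per design is the median of normalised cluster binding-curve fits. Designed RNA switches transcribed on-chip from Illumina sequencing clusters were titrated with SNAP-549-labelled MS2 coat protein in twofold steps from 0.7 or 1.5 nM to 3 µM, with 0.8–1.5 h down to 10–20 min per step. Buffer: 100 mM Tris-HCl pH 7.5, 80 mM KCl, 4 mM MgCl2, without or with constant ligand.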

Data set [2] deals with MS2 coat protein. As to the kind of experiment: apparent KD of MS2 coat protein, switch ON state; designed switch direction (-1 OFF switch, 1 ON switch): 1; higher = weaker reporter binding. To be noted: FMN input: 0 or 200 uM; Eterna round: R93 (includes R88 designs). In outline: as §1

Take “AAGAAAGAAACGCAGGAUAUGCAAAACAAAACAUGAGGAUCACCCAUGUCUUACUUACAAACAAAGCAGAAGGGCGAAAGAAAGAA [Same State 2 B]”: the “apparent KD of MS2 coat protein” value with MS2 coat protein [1] is 20 nM; in the data set on MS2 coat protein [2] it was 16.4 nM.
As to “AAGAAAGAAACGUAGGAUAUCAAGAAUAUAACAUGAGGAUCACCCAUGUAAAUACGAAAGUAUAAUGAGAAGGAUGGAUGAUCUUC [Mod of Mat of Meechl]”, the “apparent KD of MS2 coat protein” value amounted to 32.8 nM in the data set on MS2 coat protein [1] and 22.7 nM with MS2 coat protein [2].
For the sequence “AAGCAACAUGAGGAUCACCCAUGUAGCAGGGUCAGAGGAUAUUUGAUCUUGGUAAGGGUUAAAGAAGGUUGAUAAA [Ceralete]”, the “apparent KD of MS2 coat protein” value with MS2 coat protein [1] was found to be 91.1 nM; in the data set with MS2 coat protein [2], 159 nM.
Take “AAUACACAUGGUCAGGAUAUCGCAGCUAGGACAUGAGGAUCACCCAUGUAAUAAGUAAAAGUAAAUGAGAAGGGACAGGGUGACC [JR_SS002_Sub405]”: the “apparent KD of MS2 coat protein” value in the data set on MS2 coat protein [1] is 206 nM; with MS2 coat protein [2], 520 nM.
“AAUAUAUUAAGUGAGGAUAUCAAGAAAAAAACAUGAGGAUCACCCAUGUGGGAAACAUGGUAGGGUGAGAAGGUACUUAAUAUAU [Samwise Clockwise 21 - Jieux - Same State 2]”: the results for the “apparent KD of MS2 coat protein” value with MS2 coat protein [1] and in the data set on MS2 coat protein [2] were 691 nM and 228 nM, respectively.
For “AAUAUAUUAAGUGAGGAUAUCAUAGGAAAAACAUGAGGAUCACCCAUGUGGGAAACCUGGUCGGGUGAGAAGGUGCUUAAUAUAU [Samwise Clockwise 32 - Jieux - Same State 2]” the same measures were 235 nM and 50.6 nM.
“AAUCCAAAUAGUUAGGAUAUGGGAAUUAAGACAUGAGGAUCACCCAUGUAAUUAAAACAAGUUAACCAGAAGGGACAGGGUGAAA [JR_SS002_Sub207]”: the “apparent KD of MS2 coat protein” value in the data set on MS2 coat protein [1] worked out at 112 nM; in the data set with MS2 coat protein [2], 160 nM.
For “ACCCGCAGCCGUCAGGAUAUGUUCGCGUCAACAUGAGGAUCACCCAUGUGUGACAAGAAGUACACGCAGAAGGGAUCAAUGCGGG [Bienri]” the same measures were 16.4 nM and 13.7 nM.
For “AGAAAACAUGAGGAUCACCCAUGUAGAAAUAUGGGAGGAUAUACAAAGACGAAAGUCAAAGUAGAAGGCCUAAAGA [Mat - Same State 1 - Eli mod - 33]”, the entries for the “apparent KD of MS2 coat protein” value in the data set on MS2 coat protein [1] and with MS2 coat protein [2] were 71.9 nM and 19 nM, respectively.
“AGAAAACAUGAGGAUCACCCAUGUAGAAAUAUGGGAGGAUAUACAAAGACGAAAGUCGAGGUAGAAGGCCUAAAGA [Mat - Same State 1 - Meechl mod - D122]”: the figures for the “apparent KD of MS2 coat protein” value in the data set on MS2 coat protein [1] and with MS2 coat protein [2] were 103 nM and 21.7 nM, respectively.
For “AGAAAACAUGAGGAUCACCCAUGUAGAAAUAUGGGAGGAUAUACAAGGACGAAAGUCAAGGUAGAAGGCCUAAAGA [Mat - Same State 1 - Meechl mod - D127]”, the “apparent KD of MS2 coat protein” value with MS2 coat protein [1] is 88.4 nM; with MS2 coat protein [2], 22.8 nM.
Consider “AGAAAACAUGAGGAUCACCCAUGUAGAAAUAUGGGAGGAUAUACGAGGACGAAAGUCAAAGUAGAAGGCCUAAAGA [Mat - Same State 1 - Meechl mod - D125]”, for which the results for the “apparent KD of MS2 coat protein” value with MS2 coat protein [1] and in the data set with MS2 coat protein [2] were 71.2 nM and 21 nM, respectively.
In the case of “AGAAAACAUGAGGAUCACCCAUGUGACAAUAUGGGAGGAUAUACGAACACGAAAGUCGAAGUAGAAGGCCUAAAGA [Garnet 53]”, the “apparent KD of MS2 coat protein” value in the data set on MS2 coat protein [1] was determined as 75.7 nM; in the data set on MS2 coat protein [2], 26.3 nM.
For “AGAAAUAAAACACAGGAUAUGAAAAAGAAAACAUGAGGAUCACCCAUGUAAAAGAAAAAUAAAAAUCAGAAGGGUGAAAAUAAAG [Put G segment last in JL design (80%)]” the same measures were 205 nM and 59 nM.
On to “AGAAAUAAAAGAGAGGAUAUCCAAAAGAAAACAUGAGGAUCACCCAUGUGAAAGAAAAGAAAAUGGGAGAAGGCUCAAAAUAAGA [Topaz 18]”, for which the “apparent KD of MS2 coat protein” value with MS2 coat protein [1] was 55.4 nM; with MS2 coat protein [2], 22.5 nM.
For “AGAAAUAAAGCUGAGGAUAUGGGAAAAUUCACAUGAGGAUCACCCAUGUAAAAGAAAAUAAAAAACCAGAAGGCAGCAAAUAAGA [Designing denovo 6]”, the “apparent KD of MS2 coat protein” value with MS2 coat protein [1] stood at 49.8 nM; with MS2 coat protein [2], 27.6 nM.
As to “AGACAUAAAAGAGAGGAUAUCCAAAAGAAAACAUGAGGAUCACCCAUGUAAAAGAAAAUAAAAUGGGAGAAGGCUCACAUACAGA [Topaz 35]”, the results for the “apparent KD of MS2 coat protein” value in the data set on MS2 coat protein [1] and in the data set on MS2 coat protein [2] were 50.4 nM and 19 nM, respectively.
In the case of “AGACAUAACAGAGAGGAUAUCCAAUAGAAAACAUGAGGAUCACCCAUGUGAAAGAAAAUAAAAUGGGAGAAGGCUCACAUACAGA [Topaz 39]”, the “apparent KD of MS2 coat protein” value is 23 nM in the data set with MS2 coat protein [1] and 5.57 nM in the data set with MS2 coat protein [2].
In the case of “AGCACGUGAUUGGAGGAUAUGUAGUAAGCAACAUGAGGAUCACCCAUGUCUGAGGCUGAAAACCAGCAGAAGGCCGAUACAACCA [SS2-1.6]”, the entries for the “apparent KD of MS2 coat protein” value in the data set with MS2 coat protein [1] and in the data set with MS2 coat protein [2] were 22.7 nM and 15.3 nM, respectively.
